The results in this text go back to publication PMC9769707.

In the data set the target is T1, Dnr (Pseudomonas aeruginosa PAO1) (UniProt Q51441).
T1 sequence: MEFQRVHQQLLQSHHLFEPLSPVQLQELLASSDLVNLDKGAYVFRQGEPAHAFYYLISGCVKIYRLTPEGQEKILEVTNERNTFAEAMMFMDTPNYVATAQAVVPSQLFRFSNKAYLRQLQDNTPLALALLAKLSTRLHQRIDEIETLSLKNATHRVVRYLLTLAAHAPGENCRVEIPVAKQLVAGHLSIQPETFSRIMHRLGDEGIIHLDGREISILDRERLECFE
Description: EMSA. Background: Mobility shift assays separate free from complexed probe on a gel.

“GGCGGCTGACTCCGATGCAATGGTGGGGGAGCAATGCATCGGGGGGATGCCCTGATCATCGCAGTCCCTTGCTGGATCACAGGCATGACAGGGAAAACGGCGCAGAACCTGTCCTTGGCGATCCCTCTGGTCCGTCACTGGCGACGAACTACAAAAGACGCTAGAACAGGTCTATGGATTTGCAAAATAAAATTTTCGTTGGACTCCC (double strand) [hcp3 promoter fragment]”: the binding result is recorded as “no binding”.
